Patent US20060024786A1, “WASP and N-WASP constructs and methods of expressing such constructs” (Cytokinetics, Inc., priority 2004, published 2006)

Experiments:
[1] = tested on: Cdc42, PIP2, Nck and Rac1; experiment: Regulation of WASP/N-WASP proteins by upstream regulators; format: biochemical; settings: Table 2
From the text: (§1) A second class of WASP and N-WASP proteins are those in which the WH-1 and PolyPro region have been at least partially removed. Specific examples of WASP and N-WASP proteins lacking at least a part or all of the WH1 and PolyPro regions include, but are not limited to, 213 miniWASP, 199 miniWASP and 105 miniWASP (see, FIGS. 3A and 3B). These three proteins each lack some or all of the WH-1 region, and the entire PolyPro region (approximately residues 309-414 of SEQ ID NO:2). The 213 miniWASP protein thus includes, for example, amino acid residues 213-308 and 415-501 from the full length WASP sequence (SEQ ID NO:2). 199 miniWASP includes residues 199-308 and 415-501 of SEQ ID NO:2). 105 miniWASP includes residues 105-308 and 415-501 of SEQ ID NO:2).
(§2) A fourth class of WASP and N-WASP proteins that are provided are deletion mutants in which the PolyPro region is maintained but an N-terminal region (e.g., WH1 domain) is at least partially removed. Some proteins in this class are ones that include the B, CRIB/GBD, PolyPro and VCA domains but in which some or all of the WH1 has been removed. One specific example is 98N-WASP, which includes amino acids 98-501 of SEQ ID NO:4 (also assigned SEQ ID NO:12). Another specific example is the 105 WASP protein, which includes amino acids 105-501 of SEQ ID NO:10 (see FIG. 3A and 3B). […] They can also activate actin nucleation by Arp2/3.

[2] = target: T1, Arp2/3 complex; experiment: Arp2/3-mediated actin polymerization stimulated by WASP/N-WASP proteins; format: biochemical, human; settings: for Activate Arp2/3?: Table 2
T1 construct: prepared from an Arp2/3 source such as human platelets; from tissue; host or cells: cell extract, e.g. human platelets
Description: Samples containing candidate agents (individually or as mixtures) are placed into wells on a multi-well plate. Mix 1 is added to each of the wells and mixed with the candidate agent. A sample of Mix 2 is then introduced into each well and the resulting mixture thoroughly mixed. Typically, Mix 1 and Mix 2 are mixed in 1:1 ratio (e.g., 50 μl each of Mix 1 and Mix 2).
Actin polymerization is measured as a function of time by exciting pyrene at 365 nm and by detecting an increase in fluorescence emission at 407 nm. The change in fluorescence over time is utilized to determine a fluorescence parameter (e.g., maximal velocity, time to half maximal fluorescence intensity or area under the curve of a plot of fluorescence versus time).
In a second set of experiments, the ability of various truncated forms of WASP were compared to the activity of the full-length protein. The polymerization assays were conducted in the presence of 500 nM Cdc42, 2.5 nm purified Arp2/3 complex and 3.5 μM actin. FL-WASP, 105 WASP and the VCA (see Example 7) domain were tested. The results of these trials were plotted to obtain EC50 values. The results are provided in FIG. 6 and in the chart below.

[3] = Solubility of purified full-length protein; format: physicochemical; settings: expressed in 293 cells, TAP-tag purification
[4] = target: T2, Cdc42, PIP2, Nck and Rac1 (Homo sapiens, UniProt P60953, G12V); experiment: Regulation of WASP/N-WASP proteins by upstream regulators; format: biochemical; settings: Cdc42 binds and activates the construct, which then activates Arp2/3 nucleation
T2 construct: made in house; host or cells: E. coli BL21(DE3) or BL21 STAR
From the text: as §1, §2

T2 sequence (P60953 2-191 isoform P60953-1 G12V): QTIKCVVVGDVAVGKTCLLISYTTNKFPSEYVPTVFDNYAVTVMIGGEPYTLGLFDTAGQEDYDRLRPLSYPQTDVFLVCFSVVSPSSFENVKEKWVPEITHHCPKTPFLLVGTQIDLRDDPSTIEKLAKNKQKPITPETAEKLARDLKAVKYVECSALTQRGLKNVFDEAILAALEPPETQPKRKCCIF

B1: 98 N-WASP: N-WASP deletion mutant, amino acids 98-501 of SEQ ID NO:4; SEQ ID NO:12 (protein, listed as Homo sapiens)
chain: FVYNSPRGYFHTFAGDTCQVALNFANEEEAKKFRKAVTDLLGRRQRKSEKRRDPPNGPNLPMATVDIKNPEITTNRFYGPQVNNISHTKEKKKGKAKKKRLTKADIGTPSNFQHIGHVGWDPNTGFDLNNLDPELKNLFDMCGISEAQLKDRETSKVIYDFIEKTGGVEAVKNELRRQAPPPPPPSRGGPPPPPPPPHNSGPPPPPARGRGAPPPPPSRAPTAAPPPPPPSRPSVAVPPPPPNRMYPPPPPALPSSAPSGPPPPPPSVLGVGPVAPPPPPPPPPPPGPPPPPGLPSDGDHQVPTTAGNKAALLDQIREGAQLKKVEQNSRPVSCSGRDALLDQIRQGIQLKSVADGQESTPPTPAPTSGIVGALMEVMQKRSKAIHSSDEDEDEDDEEDFEDDDEWED
modifications: (1)..(408) 98N-WASP
[1]
  Regulated By Which Upstream Regulators?: Cdc42, PIP2, Nck and Rac1
[2]
  Activate Arp2/3?: Yes

B2: FL-N-WASP: full-length N-WASP, SEQ ID NO:4; expressed TAP-tagged in human 293 cells (protein, listed as Homo sapiens)
chain: MSSVQQQPPPPRRVTNVGSLLLTPQENESLFTFLGKKCVTMSSAVVQLYAADRNCMWSKKCSGVACLVKDNPQRSYFLRIFDIKDGKLLWEQELYNNFVYNSPRGYFHTFAGDTCQVALNFANEEEAKKFRKAVTDLLGRRQRKSEKRRDPPNGPNLPMATVDIKNPEITTNRFYGPQVNNISHTKEKKKGKAKKKRLTKADIGTPSNFQHIGHVGWDPNTGFDLNNLDPELKNLFDMCGISEAQLKDRETSKVIYDFIEKTGGVEAVKNELRRQAPPPPPPSRGGPPPPPPPPHNSGPPPPPARGRGAPPPPPSRAPTAAPPPPPPSRPSVAVPPPPPNRMYPPPPPALPSSAPSGPPPPPPSVLGVGPVAPPPPPPPPPPPGPPPPPGLPSDGDHQVPTTAGNKAALLDQIREGAQLKKVEQNSRPVSCSGRDALLDQIRQGIQLKSVADGQESTPPTPAPTSGIVGALMEVMQKRSKAIHSSDEDEDEDDEEDFEDDDEWED
modifications: TAP tag; (1)..(505) FL-N-WASP
notes: expressed TAP-tagged in human 293 cells
[3]
  solubility of purified protein: completely soluble
[2]; without upstream regulators, FIG. 5
  stimulation of actin polymerization by the protein by itself: only weakly stimulate actin polymerization

B3: 105WASP: WASP deletion mutant lacking the WH1 domain, amino acids 105-501; SEQ ID NO:10 (protein, listed as Homo sapiens)
chain: LVYSTPTPFFHTFAGDDCQAGLNFADEDEAQAFRALVQEKIQKRNQRQSGDRRQLPPPPTPANEERRGGLPPLPLHPGGDQGGPPVGPLSLGLATVDIQNPDITSSRYRGLPAPGPSPADKKRSGKKKISKADIGAPSGFKHVSHVGWDPQNGFDVNNLDPDLRSLFSRAGISEAQLTDAETSKLIYDFIEDQGGLEAVRQEMRRQEPLPPPPPPSRGGNQLPRPPIVGGNKGRSGPLPPVPLGIAPPPPTPRGPPPPGRGGPPPPPPPATGRSGPLPPPPPGAGGPPMPPPPPPPPPPPSSGNGPAPPPLPPALVPAGGLAPGGGRGALLDQIRQGIQLNKTPGAPESSALQPPPQSSEGLVGALMHVMQKRSRAIHSSDEGEDQAGDEDEDDEWDD
modifications: (1)..(398) 105WASP
[1]
  Regulated By Which Upstream Regulators?: Cdc42, PIP2, Nck and Rac1
[2]
  Activate Arp2/3?: Yes

B4: 213 miniWASP: amino acid residues 213-308 and 415-501 of full length WASP (SEQ ID NO:2) (protein, listed as Homo sapiens)
chain: RGLPAPGPSPADKKRSGKKKISKADIGAPSGFKHVSHVGWDPQNGFDVNNLDPDLRSLFSRAGISEAQLTDAETSKLIYDFIEDQGGLEAVRQEMRLPPALVPAGGLAPGGGRGALLDQIRQGIQLNKTPGAPESSALQPPPQSSEGLVGALMHVMQKRSRAIHSSDEGEDQAGDEDEDDEWD
modifications: (1)..(502) FL-WASP
[4]
  regulation by Cdc42: regulated by Cdc42

B5: 199 miniWASP: residues 199-308 and 415-501 of SEQ ID NO:2 (protein, listed as Homo sapiens)
chain: TVDIQNPDITSSRYRGLPAPGPSPADKKRSGKKKISKADIGAPSGFKHVSHVGWDPQNGFDVNNLDPDLRSLFSRAGISEAQLTDAETSKLIYDFIEDQGGLEAVRQEMRLPPALVPAGGLAPGGGRGALLDQIRQGIQLNKTPGAPESSALQPPPQSSEGLVGALMHVMQKRSRAIHSSDEGEDQAGDEDEDDEWD
modifications: (1)..(502) FL-WASP
[4]
  regulation by Cdc42: regulated by Cdc42
